The supplement of paper PMC10126150
± gives the standard deviation of the averaged measurements.

Tested on: ATP
Assay: switch fluorescence ratio, 500 uM ATP over buffer (Cy3 cluster intensity, sum of 5 cycles each) (fold (ratio)); higher = stronger signal-on switching upon ATP binding; sequences stand for … in TCGTCGGCAGCGTCAGATGTGTATAAGAGACAGTTTTTTTTTTTTTTTTTTTTTTTTT…TC
Conditions: aptamer strand: ATP DNA aptamer (quencher-CACCTGGGGGAGTATTGCGGAGGAAGG + anchor), 100 nM annealed; ATP concentration: 500 uM
In short: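 The quencher-labelled ATP aptamer, at 100 nM, was annealed to Cy3-labelled switching-strand clusters on a modified Illumina MiSeq flow-cell. The clusters were imaged in selection buffer, then after 15 min with 500 uM ATP at 22 °C, and this buffer/ATP cycle ran five times with NaOH stripping and re-annealing between runs. Per-cluster fluorescence ratios, summed target-cycle over summed buffer-cycle Cy3 intensity, were averaged per switch-domain sequence. Clusters outside 100-1000 RFU were excluded.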
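Also: ATP exposure 15 min at 22 °C before imaging.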

Row | Sequence | switch fluorescence ratio
1 | CTGATGTGGG | 0.964 ± 0.015
2 | GTTGGCGGGC | 0.997 ± 0.036
3 | TTTTGCCTAT | 1 ± 0.025
4 | GGGAAATGTT | 1.06 ± 0.016
5 | TCAGACGTTC | 1.07 ± 0.05
6 | CAATTTGTCT | 1.01 ± 0.028
7 | GGTCTTTAGG | 0.99184 ± 0.00074
8 | GGGTAATGTG | 0.982 ± 0.029
9 | ATATTGGGGC | 0.993 ± 0.017
10 | ACTAAGGGGA | 1.03 ± 0.0058
11 | CCCCATTTTT | 1.06 ± 0.067
12 | AGGATCGATG | 1 ± 0.05
13 | AAAATGATGG | 1 ± 0.0073
14 | GCCAAAACCT | 2 ± 0.76
15 | TGGCCGGGCA | 2.13 ± 1.6
16 | TGCGAATGAG | 0.993 ± 0.0049
17 | GGGAAGTCGG | 0.9824 ± 0.0094
18 | AGTCGGAAAG | 1.02 ± 0.015
19 | ATTTGAGTGC | 0.966 ± 0.002
20 | GCTGTAATAT | 1.11 ± 0.015
21 | GTGGTTAGGG | 1.01 ± 0.041
22 | AAAACGACAG | 1.04 ± 0.013
23 | CGATTTTGGC | 0.962 ± 0.049

Row | Sequence | switch fluorescence ratio
24 | TGGAAAAAAG | 0.9901 ± 0.0015
25 | CTAGACCCGG | 0.988 ± 0.027
26 | AACAAGTTAG | 1.01 ± 0.015
27 | CATGATTGAT | 0.976 ± 0.029
28 | CCCGTGGAAA | 1.09 ± 0.1
29 | TTTCATTTTA | 0.9881 ± 0.0064
30 | TTATGTTTAA | 0.999 ± 0.025
31 | AACTTTTCTA | 0.976 ± 0.017
32 | AACGGGGGCT | 0.9778 ± 0.006
33 | CTATATTAGT | 1 ± 0.045
34 | TCGGAGTTTA | 1.04 ± 0.016
35 | GACATTTTTA | 0.975 ± 0.022
36 | GACTAGGTCG | 1.16 ± 0.22
37 | GTCTTTAAGG | 0.964 ± 0.036
38 | TGCTGGGGCG | 0.9876 ± 0.0022
39 | CGGGTACTAG | 1.02 ± 0.044
40 | AGATATTTCG | 1.02 ± 0.028
41 | GTGTATTTTT | 0.99 ± 0.024
42 | AAATAGGGCT | 1.004 ± 0.0097
43 | AGTTTAGAAT | 1.001 ± 0.0052
44 | GGGGGGAAAC | 1 ± 0.022
45 | AAGGGGTGAC | 0.977 ± 0.041
46 | CGGTGGGGT | 1.035 ± 0.0064

Row | Sequence | switch fluorescence ratio
47 | GGGGGTTCCT | 1 ± 0.032
48 | GCAGGGTGGG | 1.02 ± 0.028
49 | TTGGGGGCCT | 1.04 ± 0.06
50 | GGGGGCATCA | 1.07 ± 0.12
51 | CGTGCTGGAA | 0.975 ± 0.045
52 | CGAAGATTTG | 1 ± 0.015
53 | CGGGCTGGGT | 0.987 ± 0.057
54 | ATGGTAAGGG | 0.991 ± 0.026
55 | TTGCGGCTGG | 0.974 ± 0.031
56 | TTGGGGCATA | 1.43 ± 0.77
57 | AGTGGGGGTT | 0.983 ± 0.019
58 | AAGGCGAGTA | 0.997 ± 0.017
59 | ATGTGGCCAC | 1.06 ± 0.053
60 | CTGATACATT | 0.9715 ± 0.0069
61 | GGTAGAGACT | 0.9755 ± 0.0023
62 | TTGTAAAATT | 0.99 ± 0.027
63 | TTATATCGGG | 0.995 ± 0.016
64 | CAGGAAAGCT | 1.234 ± 0.0051
65 | TCGTCGTACG | 1.02 ± 0.021
66 | ATAGTAGGTA | 0.99137 ± 0.00055
67 | AAGGGAAAGG | 1 ± 0.013
68 | AATAGGACAA | 0.982 ± 0.037
69 | AAGAAAAATT | 0.9725 ± 0.0048

Row | Sequence | switch fluorescence ratio
70 | CAGTAACTGT | 1.02 ± 0.027
71 | GGTTCTGATC | 0.981 ± 0.01
72 | AGTGCCGTAA | 1.025 ± 0.0056
73 | GTTGAAGGCA | 1.01 ± 0.022
74 | GATAGGAAAC | 1.12 ± 0.12
75 | TCCGGACCGG | 0.995 ± 0.019
76 | GAGTAGCGGT | 1.01 ± 0.026
77 | TATACGCGCC | 1.12 ± 0.083
78 | AATATATCGC | 0.977 ± 0.018
79 | CCCCAGGAAT | 1.24 ± 0.027
80 | AAGAGTATAA | 0.985 ± 0.04
81 | AGTGAAAGTT | 1 ± 0.012
82 | ATACGAATTC | 1.01 ± 0.049
83 | ACGTCTTACT | 1.101 ± 0.0018
84 | GAAAAAGTCA | 1.01 ± 0.023
85 | TATAATATAT | 1 ± 0.029
86 | CCAGTCTGTA | 0.9492 ± 0.0057
87 | CGGGCGAATA | 1 ± 0.017
88 | CAAATGATTT | 0.985 ± 0.021
89 | TTTTTAAGCG | 1 ± 0.023
90 | ACGACCATCG | 1.01 ± 0.02
91 | ATCTATTGTG | 0.974 ± 0.013
92 | CAAAATTTGC | 0.9841 ± 0.0061

Row | Sequence | switch fluorescence ratio
93 | ATAATTTAGG | 0.9859 ± 0.0029
94 | ATTAGCTGGT | 0.952 ± 0.017
95 | ATTATTAGAA | 0.9912 ± 0.0034
96 | TATTTTGGGG | 0.988 ± 0.019
97 | TTTGCTGGTG | 1.1 ± 0.026
98 | TCACTGGTTG | 1.01 ± 0.011
99 | GTAAATTTGC | 1.01 ± 0.013
100 | GGATGGGGTT | 1 ± 0.018
101 | CGGTCCACGA | 1.022 ± 0.0017
102 | TTAGTCGACC | 0.9919 ± 0.0016
103 | TATATTTGTA | 0.979 ± 0.024
104 | TGACATCATT | 1.063 ± 0.002
105 | TAGGCAGGCG | 1.01 ± 0.1
106 | TCTTAGGTCA | 0.973 ± 0.022
107 | GAGTCCAGGG | 1.21 ± 0.27
108 | ATTTATATTG | 0.989 ± 0.05
109 | CGGGATGTGC | 0.99328 ± 6e-06
110 | CTTGGAGGGT | 1.04 ± 0.086
111 | TTCCTTAGCG | 1.03 ± 0.015
112 | AAACGGTTAC | 1.24 ± 0.038
113 | CGTAGTGGGG | 0.993 ± 0.044
114 | GATAGATCAG | 0.993 ± 0.018
115 | AAGAGGGTGG | 0.997 ± 0.02

Row | Sequence | switch fluorescence ratio
116 | GTTTCGCGAC | 1.19 ± 0.026
117 | TTGGGTTTGG | 0.986 ± 0.015
118 | TTTGCTCACG | 1.01 ± 0.029
119 | GGGTAAGCTT | 0.996 ± 0.016
120 | TATTGTGCTT | 0.982 ± 0.035
121 | TAGGGTGGG | 1.024 ± 0.0028
122 | GCGATGCTGC | 1.24 ± 0.08
123 | AGGCAGGACT | 1.02 ± 0.044
124 | GGGGGAGGT | 0.986 ± 0.038
125 | AATATACGT | 1.05 ± 0.032
126 | GACGGTAGGG | 0.969 ± 0.051
127 | CCGAATTGTA | 1.03 ± 0.016
128 | ACGGGGGCTT | 1.04 ± 0.062
129 | TAAAATGTGA | 0.963 ± 0.021
130 | CGTTAATCTA | 0.987 ± 0.026
131 | TTTGGAAAGC | 1.04 ± 0.019
132 | ATTTTTAGT | 1 ± 0.016
133 | AAGAGAGGGG | 1.02 ± 0.029
134 | GATCTGAAGT | 1.02 ± 0.012
135 | GTGGAGTTTG | 0.999 ± 0.012
136 | TTTAGGCTGC | 1.01 ± 0.021
137 | TTCAGGGGCT | 1.43 ± 0.58
138 | AAATAATGGT | 1.02 ± 0.041

Row | Sequence | switch fluorescence ratio
139 | AAGGGTATGG | 0.9729 ± 0.0076
140 | GCGGCCGAGG | 1.02 ± 0.041
141 | CGCCCCAGTG | 3.02 ± 1.8
142 | TTGCGAGTTG | 1 ± 0.021
143 | TTTTCTGTAT | 1.03 ± 0.052
144 | TAGGGGAGGG | 1.03 ± 0.041
145 | CACCATTAGT | 0.9802 ± 0.0079
146 | ACACCGTCTA | 1.11 ± 0.023
147 | GAGATCGCC | 0.982 ± 0.016
148 | AGTTTTCCAT | 1.0004 ± 0.00055
149 | TAATGAAGCG | 0.993 ± 0.018
150 | CCGGATTAA | 1.02 ± 0.039
151 | TACGGGGGAC | 1.07 ± 0.047
152 | CGCCTAAGGG | 0.993 ± 0.037
153 | GTATTCAGGT | 0.9921 ± 0.0035
154 | GATTGCAAGG | 1.02 ± 0.02
155 | CTAATGGTAT | 0.991 ± 0.022
156 | CGTGGCCGCG | 0.959 ± 0.012
157 | AAAGGGGAGT | 1.04 ± 0.11
